This data set has as its system MS2 coat protein. Description: apparent KD of MS2 coat protein; higher = weaker reporter binding. The settings on record: Eterna round: R107. In outline:
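In 100 mM Tris-HCl pH 7.5 with 80 mM KCl and 4 mM MgCl2, and without or with constant ligand, SNAP-549-labelled MS2 coat protein was titrated in twofold steps from 0.7 or 1.5 nM to 3 µM. Per-step times went from 0.8–1.5 h down to 10–20 min. The RNA switches were transcribed on-chip from Illumina sequencing clusters, and apparent KD is the per-design median of normalised cluster binding-curve fits.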

Where [1] appears, read: input ligand: theophylline 20 uM.
Setting [2] is: input ligand: theophylline 2 mM.
[3] abbreviates: input ligand: tryptophan 2.4 mM.

Take “GAUAUAUAUCGAAGGAGCGGCCCUUGAUCCUCAUGAGACAUGAGGAUCACCCAUGUCUCGGGCCAGGUAGGUCGCGAUAUAUAUC [Astros-omei-mod2]”: the “apparent KD of MS2 coat protein” value amounted to 26.3 nM (input ligand: arginine 13.2 mM); 21.2 nM (input ligand: none); 28.8 nM under setting [1]; 24.2 nM under setting [2]; 22.8 nM under setting [3].
With “GAUCGAAAUAACGCAUAGGAAAACUAUGCGCGAGGACCGGUACGGCCGCCACUCGUCCUCACAUGAGGAUCACCCAUGUACGAUC [#SwitchBubble #CuTurnoff]”, the “apparent KD of MS2 coat protein” value reads like this: (input ligand: arginine 13.2 mM) 23.1 nM; under setting [1], 29.1 nM; under setting [2], 27.6 nM.
For the sequence “GAUGAACUAUAUGAUACCAGACAACAUGAGGAUCACCCAUGUGUAAGUCGUCCUCUGCCUGUCCCUUGGCAGCGUAUAGUUUAUC [XTheo B #18]”, the “apparent KD of MS2 coat protein” value came out at 43.2 nM (input ligand: arginine 13.2 mM), 76.4 nM under setting [1] and 23.3 nM under setting [3].
Regarding “GAUGAACUAUGUGAUACCAGACAACAUGAGGAUCACCCAUGUGCGCGUCGUCCUCUGCCUGUCCCUUGGCAGCGUAUAGUUUAUC [XTheo B #13]”, the “apparent KD of MS2 coat protein” value amounted to 77.9 nM (input ligand: arginine 13.2 mM), 110 nM under setting [1] and 47.8 nM under setting [3].
As to “GAUGAACUAUUCGAUACCAGACUACAUGAGGAUCACCCAUGUGUGUCAAUUUCUCAGUCAGUCCCUUGGCAGCGAAUAGUUUAUC [#26 Exclusion-TheophyllineB]”, the “apparent KD of MS2 coat protein” value came out at 53 nM (input ligand: arginine 13.2 mM), 51.7 nM under setting [1] and 26.3 nM under setting [3].
As for “GAUGAACUAUUUGAUACCAGACUACAUGAGGAUCACCCAUGUGAGUUUAUACUUCAGUCAGUCCCUUGGCAGCAAAUAGUUUAUC [XTheo B #6]”, the “apparent KD of MS2 coat protein” value (input ligand: arginine 13.2 mM) came out at 38.3 nM, the “apparent KD of MS2 coat protein” value under setting [1] turned out to be 60.9 nM and the “apparent KD of MS2 coat protein” value under setting [3] was determined as 42.1 nM.
Turning to “GAUGAACUAUUUGAUACCAGACUACAUGAGGAUCACCCAUGUGUGUUUAUACUUCUGUCAGUCCCUUGGCAGCAAAUAGUUUAUC [XTheo B #4]”, the “apparent KD of MS2 coat protein” value by setting is: (input ligand: arginine 13.2 mM) 47.3 nM; under setting [1], 95.2 nM; under setting [3], 40.4 nM.
“GAUGAUAUUGCAGAUACCAGACACAUGAGGAUCACCCAUGUCGCUGAGAUGCUGGAUCGUGUCCCUUGGCAGCUGCGAUAUCAUC [Brazil]”: the “apparent KD of MS2 coat protein” value runs as follows: (input ligand: arginine 13.2 mM) 38.7 nM; under setting [1], 106 nM; under setting [3], 49.6 nM.
On to “GCACAAGAUGGAAGGAGCGCUGGGAAAGGUCACAUGAGGAUCACCCAUGUUCUCCUUGCCGAGCAGGUAGGUCGCCAUCUUGUGC [SSAB NP+V+V2 #2]”, for which the “apparent KD of MS2 coat protein” value is 30.4 nM (input ligand: arginine 13.2 mM); 37.8 nM (input ligand: none); 50 nM under setting [1]; 56.1 nM under setting [2]; 33.9 nM under setting [3].
“GCACAAGAUGGAAGGAGCGCUGGUAACGGUCACAUGAGGAUCACCCAUGUGCUCCUUGCCGAGCAGGUAGGUCGCCAUCUUGUGC [SSAB NP+V+V2 #6 +-Same Structure]”: the “apparent KD of MS2 coat protein” value is, setting by setting: (input ligand: arginine 13.2 mM) 34.1 nM; (input ligand: none) 44.4 nM; under setting [1], 46.1 nM; under setting [2], 45.3 nM; under setting [3], 35.3 nM.
Take “GCACAAGAUGGAAGGAGCGCUGGUAGGUGACACAUGAGGAUCACCCAUGUGCUCCUUGCCGAGCAGGUAGGUCGCCAUCUUGUGC [SSAB NP+V+V2 #7]”: the “apparent KD of MS2 coat protein” value was determined as 21.1 nM (input ligand: arginine 13.2 mM); 27.7 nM (input ligand: none); 40.3 nM under setting [1]; 36.1 nM under setting [2]; 25.5 nM under setting [3].
Take “GCACCAGGUACGGAUACCAGACGCUGCCGAUUGGGUGGACAUGAGGAUCACCCAUGUAAUGUCCCUUGGCAGCCGUACCUGGUGC [#17 Exclusion-TheophyllineB]”: the “apparent KD of MS2 coat protein” value is, setting by setting: (input ligand: arginine 13.2 mM) 13.5 nM; (input ligand: none) 13.8 nM; under setting [1], 38.8 nM; under setting [2], 200 nM; under setting [3], 17.8 nM.
On to “GCACCAGGUACGGAUACCAGCUGCCACAGUUACAUGAGGAUCACCCAUGUGAUAAAGUGUAGCCCUUGGCAGCUGUACCUGGUGC [SSThB NP+V+V2 #6 +-Same Structure]”, for which the “apparent KD of MS2 coat protein” value is 93.2 nM (input ligand: arginine 13.2 mM), 69.1 nM under setting [1] and 125 nM under setting [3].
In the case of “GCACCAGGUACGGAUACCAGCUGCCACGGUUACAUGAGGAUCACCCAUGUGAUAAGGUGUAGCCCUUGGCAGCUGUACCUGGUGC [SSThB NP+V+V2 #7 +-Same Structure]”, the “apparent KD of MS2 coat protein” value by setting is: (input ligand: arginine 13.2 mM) 96.9 nM; (input ligand: none) 142 nM; under setting [1], 500 nM; under setting [2], 411 nM; under setting [3], 258 nM.
On to “GCACCAGGUACGGAUACCAGCUGCCAGAGAUACAUGAGGAUCACCCAUGUGACCUGAUUUAGCCCUUGGCAGCUGUACCUGGUGC [SSThB NP+V+V2 #2 Same Structure]”, for which the “apparent KD of MS2 coat protein” value (input ligand: arginine 13.2 mM) is 178 nM, the “apparent KD of MS2 coat protein” value under setting [1] is 472 nM and the “apparent KD of MS2 coat protein” value under setting [3] was found to be 680 nM.
In the same order, the values of “GCACGACAUGAGGAUCACCCAUGUGCAGAUACCAGUAAUGUAUAUUACCCUUGGCAGCUGAGUAGAUCUGGAGGGCUAUAGGUAA [Same State Theophylline A GF10]” are 11.5 nM, 18.7 nM and 14.1 nM.
With “GCAUAGUAAAAUGAUACCAGAGUCAAAACAGACAUGAGGAUCACCCAUGUGCAUAUACAACUCCCUUGGCAGCAUUAAAACGGGA [theeternabot_sameState_MS2_Theo_B_28]”, the “apparent KD of MS2 coat protein” value is, setting by setting: (input ligand: arginine 13.2 mM) 14.2 nM; under setting [1], 18.7 nM; under setting [3], 18.2 nM.

For the origin of these results see the supplement of paper PMC9170038.
